Assay results as given in patent US20100196361A1, “Method of inhibition of vascular development using an antibody” (DYAX CORP., priority 2003, published 2010).

T1: Tie1-EpoR chimeric receptor (UniProt P14753+P35590)
T1 construct: PCR amplified extracellular part of human Tie1 (bp 37-2316 of X60975); expressed in transfected cells
T1 sequence (P35590+P14753 with tags, fused parts or gaps): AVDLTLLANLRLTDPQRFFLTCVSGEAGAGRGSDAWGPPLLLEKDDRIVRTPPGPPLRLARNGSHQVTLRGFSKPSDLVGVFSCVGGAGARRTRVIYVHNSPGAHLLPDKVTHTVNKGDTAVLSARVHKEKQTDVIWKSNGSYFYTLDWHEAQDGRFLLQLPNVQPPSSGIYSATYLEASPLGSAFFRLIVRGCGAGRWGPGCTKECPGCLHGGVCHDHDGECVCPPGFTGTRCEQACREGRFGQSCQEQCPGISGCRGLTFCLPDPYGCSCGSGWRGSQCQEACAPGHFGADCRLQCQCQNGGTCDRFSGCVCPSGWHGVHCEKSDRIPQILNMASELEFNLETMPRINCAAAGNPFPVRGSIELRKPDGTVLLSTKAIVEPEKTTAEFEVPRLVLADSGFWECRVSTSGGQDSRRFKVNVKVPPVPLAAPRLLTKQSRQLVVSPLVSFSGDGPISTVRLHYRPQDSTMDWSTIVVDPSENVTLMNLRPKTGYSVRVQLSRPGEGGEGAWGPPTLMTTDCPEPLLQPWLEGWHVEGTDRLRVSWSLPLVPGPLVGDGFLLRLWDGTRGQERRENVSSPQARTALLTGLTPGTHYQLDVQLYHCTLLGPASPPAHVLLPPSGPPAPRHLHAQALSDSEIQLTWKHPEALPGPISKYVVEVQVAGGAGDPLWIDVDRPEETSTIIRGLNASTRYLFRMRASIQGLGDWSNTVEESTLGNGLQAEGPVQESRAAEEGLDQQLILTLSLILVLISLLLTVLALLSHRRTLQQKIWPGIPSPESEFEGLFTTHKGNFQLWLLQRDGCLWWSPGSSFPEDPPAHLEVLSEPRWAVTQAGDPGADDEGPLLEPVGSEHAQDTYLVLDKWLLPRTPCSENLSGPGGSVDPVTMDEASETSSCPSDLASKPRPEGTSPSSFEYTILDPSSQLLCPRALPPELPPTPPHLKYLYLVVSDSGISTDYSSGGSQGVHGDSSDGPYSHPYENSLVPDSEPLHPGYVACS


biological target: Tie1 (Homo sapiens, UniProt P35590); assay: Competition with E3 for binding to Tie1; settings: not given
Sequence (P35590 22-1138): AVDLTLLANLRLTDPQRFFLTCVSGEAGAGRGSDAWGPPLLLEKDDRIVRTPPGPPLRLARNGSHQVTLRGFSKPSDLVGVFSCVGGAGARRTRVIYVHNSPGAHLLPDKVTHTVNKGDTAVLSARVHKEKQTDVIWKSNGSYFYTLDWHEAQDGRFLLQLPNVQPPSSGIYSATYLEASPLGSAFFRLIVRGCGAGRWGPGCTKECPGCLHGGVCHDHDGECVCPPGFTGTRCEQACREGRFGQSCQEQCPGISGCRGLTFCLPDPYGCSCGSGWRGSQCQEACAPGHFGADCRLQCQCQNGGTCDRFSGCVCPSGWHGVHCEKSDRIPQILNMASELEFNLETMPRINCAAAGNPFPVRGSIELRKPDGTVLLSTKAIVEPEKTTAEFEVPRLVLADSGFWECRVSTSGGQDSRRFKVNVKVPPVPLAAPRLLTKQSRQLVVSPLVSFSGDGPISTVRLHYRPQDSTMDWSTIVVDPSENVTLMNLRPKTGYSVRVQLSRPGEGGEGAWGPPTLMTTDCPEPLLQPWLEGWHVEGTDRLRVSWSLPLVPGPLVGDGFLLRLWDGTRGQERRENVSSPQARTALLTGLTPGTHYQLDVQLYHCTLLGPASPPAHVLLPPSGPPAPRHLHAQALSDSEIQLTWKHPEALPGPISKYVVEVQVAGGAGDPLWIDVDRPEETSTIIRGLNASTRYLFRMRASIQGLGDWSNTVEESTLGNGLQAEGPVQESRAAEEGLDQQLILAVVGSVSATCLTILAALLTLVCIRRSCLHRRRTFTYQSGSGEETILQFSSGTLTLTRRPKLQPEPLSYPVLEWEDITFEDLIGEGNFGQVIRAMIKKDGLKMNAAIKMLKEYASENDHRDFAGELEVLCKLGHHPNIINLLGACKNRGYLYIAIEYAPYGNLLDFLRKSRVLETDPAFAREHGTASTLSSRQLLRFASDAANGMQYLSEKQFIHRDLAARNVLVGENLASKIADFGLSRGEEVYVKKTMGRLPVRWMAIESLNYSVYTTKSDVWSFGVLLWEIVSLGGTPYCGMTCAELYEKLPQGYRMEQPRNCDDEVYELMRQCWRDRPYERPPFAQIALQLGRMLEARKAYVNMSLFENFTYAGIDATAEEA

Row | competition with E3 for binding to Tie1 | Molecule
1 | competes with E3 for binding to Tie1 | M0045B03: Tie1-binding antibody; LC SEQ ID NO:260, HC SEQ ID NO:262 (antibody, V domains shown, Antibody) VH: EVQLLESGGGLVQPGGSLRLSCAASGFTFSQYPMIWVRQAPGKGLEWVSVISPSGGHTSYADSVKGRFTISRDNSKNTLYLQMNSLRAEDTAVYYCARIQYYGGAFDIWGQGKMVTVSS VL: QDIQMTQSPDTLSLSPGERATLSCRASQSISRYLAWYQQRPGQAPSLLIYDASERAAGIPARFSGSGSGTDFTLTISSLEPEDFAVYYCQQRGNWPLTFGGGTKVDIR
2 | competes with E3 for binding to Tie1 | M0053F04: Tie1-binding antibody; LC SEQ ID NO:392, HC SEQ ID NO:394 (antibody, V domains shown, Antibody) VH: EVQLLESGGGLVQPGGSLRLSCAASGFTFSGYGMYWVRQAPGKGLEWVSVISPSGGYTHYADSVKGRFTISRDNSKNTLYLQMNSLRAEDTAVYYCARAYSSGWYLDYWGQGTLVTVSS VL: QDIQMTQSPATLSLSPGERATLSCRASQSVSSYLAWYQQKPGQAPRLLIYDTSNRATGIPARFSGSGSGTDFTLTISSLEPEDFAVYYCQQRSNWPITFGQGTRLEIK
3 | competes with E3 for binding to Tie1 | M0044B08: Tie1-binding antibody; LC SEQ ID NO:180, HC SEQ ID NO:182 (antibody, V domains shown, Antibody) VH: EVQLLESGGGLVQPGGSLRLSCAASGFTFSAYGMGWVRQAPGKGLEWVSVISPSGGQTSYADSVKGRFTISRDNSKNTLYLQMNSLRAEDTALYYCAGGDRYGPLHYWGQGTLVTVSS VL: QDIQMTQSPSFLSASVGDRVTISCRASQYISIYLNWYQQRPGEAPKLLINAASSLQSGDPSRFSGSGSGTDFTLTINSLQPDDFATYYCQQYKSYPLTFGEGTKVEIK
4 | competes with E3 for binding to Tie1 | M0056G08: Tie1-binding antibody; LC SEQ ID NO:568, HC SEQ ID NO:570 (antibody, V domains shown, Antibody) VH: EVQLLESGGGLVQPGGSLRLSCAASGFTFSHYGMWWVRQAPGKGLEWVSVISPSGGQTNYADSVKGRFTISRDNSKNTLYLQMNSLRAEDTAVYYCAKGQIHGGNLASWGQGTLVTVSS VL: QDIQMTQSPGTLSLSPGERATLSCRASQSISSSYLAWYQQKPGQAPRLLLYGTSNRATGIPDRFSGSGSGTDFTLTISRLEPEDFALYYCQQRYKWPLTFGPGTKVDFK

biological target: T1, Tie1-EpoR chimeric receptor; assay: BaF3 bioassay (Tie1/EpoR chimeric BaF3 cell assay); type: cell-based, human; settings: 100 ng/ml E3 IgG together with 100 (1:1) or 500 (1:5) ng/ml test antibody
Text: BaF3 bioassay. To generate Tie1-EpoR expressing BaF3 cells for the bioassay, BaF3 pre-B cells were stably transfected with a nucleic acid that expresses chimeric receptor containing the extracellular domain of human Tie1 fused with the transmembrane and cytoplasmic domains of the mouse erythropoietin receptor. The nucleic acid used was a Tie1-EpoR chimeric cDNA in a pEF-BOS expression vector. The nucleic acid encoding the chimeric receptor was constructed by cloning the PCR amplified extracellular part of human Tie1 (bp 37-2316 of X60975) as EcoRI-BglII fragment into mEpoR-pcDNA vector. The cDNA encoding for the chimeric receptor consisting of the extracellular part of Tie1 fused with the transmembrane and intracellular domains of EpoR was subcloned into the pEF-BOS expression vector. Vector was linearized and co-transfected into BaF3 cells with pcDNA3.1(+) Zeo vector (Invitrogen). Stable cell pools were generated by selection with 250 μg/ml Zeocin. The expression of Tie1/EpoR fusion protein in several clones was analyzed by Western blotting with an antibody against EpoR.
To perform the assays, BaF3 cells expressing the Tie1-EpoR chimera were split in 96-well microtiter plates at 50 000 cells/well in the presence of the indicated concentrations of anti-Tie1 antibodies. The E3 antibody used in this study was the germ-lined E3 antibody (DX-2220). As controls, Zeocin resistant pools not expressing the Tie1-EpoR were used. After 48 h, the viability of the cells was determined by adding MTT (3-(4,5-dimethylthiazol-2-yl)-2,5-diphenyl tetrazolium bromide (Sigma), 0.5 mg/ml), followed by further 2 h of culture, addition of an equal volume of cell lysis solution (10% SDS, 10 mM HCl) and incubation overnight at 37° C. Absorbance was measured at 540 nm.
Stimulation and inhibition of Tie1 in Tie1-EpoR transfected BaF3 cells and human primary endothelial cells. Although no ligand for Tie1 has been identified, we used the following efficient screening method for Tie1-binding proteins. Interleukin-3 dependent pre-B-lymphocyte (BaF3) cells were transfected with a construct that expresses a Tie1-EpoR fusion protein. Since BaF3 cells are IL-3 dependent, they die unless IL-3 is provided. However, Tie-EpoR receptor expressing BaF3 cells can survive and proliferate if the medium contains a Tie1-binding protein, either a natural ligand or an artificial mimetic. Cell survival can be quantitated, e.g., by colorimetric MTT-assay, which measures mitochondrial activity.
To determine if any of the other monoclonal antibodies tested inhibit the survival effect of E3 IgG in Tie1-EpoR BaF3 assay, antibodies were studied in combination with E3 IgG. A concentration of 100 ng/ml of E3 IgG together with 100 (1:1) or 500 (1:5) ng/ml of the other antibodies were used and the viability of Tie1-EpoR cells was measured.

Row | Molecule | effect on the survival effect of E3 IgG in Tie1-EpoR BaF3 assay
5 | A2: anti-Tie1 antibody clone; variable domains in FIGS. 20A and 20B (antibody, V domains shown) VH: EVQLLESGGGLVQPGGSLRLSCAASGFTFSRYTMMWVRQAPGKGLEWVSGIYPSGGVTLYADSVKGRFTISRDNSKNTLYLQMNSLRAEDTAVYYCARVNYYDSSGYGPIAPGLDYWGQGTLVTVSSASTKGPSVFP VL: HSAQDIQMTQSPGTLSLSPGERATLSCRASRSVIISYVAWYQQKPGQAPRLLIYGASTRATGIPDRFSGSGSGTDFTLTISRLEPEDFAVYFCQLYGRSPRIIFGQGTRLEIK | inhibited the viability effect of E3 IgG to some extent
6 | P-B3: anti-Tie1 antibody clone; variable domains in FIGS. 12A and 12B (antibody, V domains shown) VH: EVQLLESGGGLVQPGGSLRLSCAASGFTFSRYGMHWVRQAPGKGLEWVSVISPSGGMTYYADSVKGRFTISRDNTKNTLYLQMNSLRAEDTAVYYCARVGATGPFDIWGQGTMVTVSSASTKGPSVFPLAP VL: QDIQMTQSPATLSLSPGERATLSCRASQSVSTYLAWYQQKPGQAPRLLIYDASNRATGIPGRFSGSGSGTDFTLTISSLEAEDFAVYYCQQRSSWPITFGQG | inhibited the viability effect of E3 IgG to some extent
7 | P-C6: anti-Tie1 antibody clone; variable domains in FIGS. 13A and 13B (antibody, V domains shown) VH: EVQLLESGGGLVQPGGSLRLSCAASGFTFSHYGMTWVRQAPGKGLEWVSVISPSGGQTGYADSVKGRFTISRDNSKNTLYLQMNSLRAEDTAVYYCAGGGYAAFDYWGQGTLVTVSSASTKGPSVFPLAPSSKSTSGGTAALG VL: QDIQMTQSPATLSLSPGERATLSCRASQSVSSYLAWYQQKPGQAPRLLIYDASNRATGIPARFSGSGSGTDFTLTISSLEPEDFAVYYCQQRSNWPLTFGGG | inhibited the viability effect of E3 IgG to some extent
8 | A10: anti-Tie1 antibody clone; variable domains in FIGS. 21A and 21B (antibody, V domains shown) VH: EVQLLESGGGLVQPGGSLRLSCAASGFTFSNYVMVWVRQAPGKGLEWVSGIYPSGGHTKYADSVKGRFTISRDNSKNTLYLQMNSLRAEDTAVYYCARVNYYDSSGYGPIAPGLDYWGQGTLV VL: HSAQDIQMTQSPGTLSLSPGERATLFCRASQRVTSNSLAWYQQRPGQAPRLLIYDASTRATGIPDRFSGSGSGRDFTLTISRLEPEDFAVYYCQRYGSSVLYSFGQGTKLEIT | inhibited the viability effect of E3 IgG to some extent
9 | C7: anti-Tie1 antibody clone; variable domains in FIGS. 25A and 25B (antibody, V domains shown) VH: EVQLLESGGGLVQPGGSLRLSCAASGFTFSRYVMYWVRQAPGKGLEWVSVIYPSGGATYYADSVKGRFTISRDNSKNTLYLQMNSLRAEDTAVYYCARRGSSGAFDYWGQGTLVTVSSASTKGPSVFP VL: HSAQSVLTQPASVSGSPGQSITISCTGTSSDIGRYNYASWYQQRPGKSPKLLIYEVSDRPSGVSNRFSGSKSGNTASLIISGLQAEDEADYYCSSYSSTNSLQVVFGGGTKLSVLGQPKAAPSVTLFPPSSEELQANKATLVCL | promoted the survival of Tie1/EpoR BaF3 cells in combination with E3 IgG
10 | P-B1: anti-Tie1 antibody clone; variable domains in FIGS. 11A and 11B (antibody, V domains shown) VH: EVQLLESGGGLVQPGGSLRLSCAASGFTFSRYPMVWVRQAPGKGLEWVSVISPSGGQTFYADSVKGRFTISRDNSKNTLYLQMNSLRAEDTAVYYCARGVLTTAFDIWGQGTMVTVSSASTKGPSVFPLAPSSK VL: QDIQMTQSPSSLSASVGDRVTITCRASQNINSYLNWYQQKPGQAPKLLIYAASNLETAVPSRFSGSGSGTDFTLTISSLQPEDFATYYCQQFNTYPLTFGGG | inhibited the viability effect of E3 IgG to some extent
